Data taken from patent publication US20250011363A1, “OPTIMIZED SHORTENED PEPTIDE THAT BINDS TO ACETYLCHOLINE RECEPTOR, AND USE THEREOF” (SKINMED CO., LTD., priority 2021, published 2025).

Target: acetylcholine receptor
Assay: SPR, AchR on chip, peptide 10 uM

Row | Binder | Binding affinity (RU)
1 | KRQTK [5mer-348] | 80
2 | RRISR [5mer-502] | 84
3 | RVLTK [5mer-499] | 76
4 | RVQSR [5mer-529] | 84
5 | RQLTR [5mer-203] | 78
6 | KRICR [5mer-347] | 78
7 | KQIQR [5mer-504] | 72
8 | RVLLR [5mer-528] | 50
9 | RQQRR [5mer-345] | 86
10 | KQQYK [5mer-212] | 64
11 | KLQRR [5mer-217] | 72
12 | KWYRR [5mer-202] | 65
13 | KVLCR [5mer-230] | 67
14 | KLQRK [5mer-501] | 78
15 | RQIYR [5mer-505] | 71
16 | KGYTR [5mer-517] | 70
17 | RVYYR [5mer-518] | 87
18 | RLYLK [5mer-512] | 70
19 | RQYRR [5mer-215] | 79
20 | RSRTR [5mer-44] | 59
21 | KRFLK [5mer-228] | 53
22 | KQFQK [5mer-523] | 84
23 | RLVYR [5mer-522] | 78
24 | RQLSK [5mer-510] | 71
25 | RRQQR [5mer-227] | 84
26 | RWYYK [5mer-513] | 83
27 | KWQTR [5mer-516] | 83

Row | Binder | Binding affinity (RU)
28 | KRVSK [5mer-503] | 61
29 | KVQYK [5mer-218] | 80
30 | KRQQK [5mer-225] | 51
31 | KGISK [5mer-346] | 57
32 | RLYSK [5mer-519] | 72
33 | RWRRR [5mer-530] | 80
34 | RLQRR [5mer-224] | 67
35 | KRILR [5mer-220] | 81
36 | KQRYK [5mer-525] | 51
37 | RVLLK [5mer-520] | 86
38 | KQYTR [5mer-219] | 55
39 | KRQSR [5mer-531] | 65
40 | KQVRR [5mer-207] | 72
41 | RLYYR [5mer-211] | 73
42 | KRYQR [5mer-199] | 84
43 | KRQCK [5mer-46] | 76
44 | RGQRK [5mer-515] | 56
45 | KSVQR [5mer-527] | 70
46 | KGLLK [5mer-231] | 60
47 | KVYYR [5mer-210] | 67
48 | KRFRK [5mer-521] | 78
49 | RGVRR [5mer-209] | 78
50 | RWIYR [5mer-201] | 62
51 | KQQCK [5mer-214] | 79
52 | KSLSR [5mer-511] | 56
53 | RRICR [5mer-524] | 83
54 | RWYYR [5mer-205] | 75

Row | Binder | Binding affinity (RU)
55 | RVYLR [5mer-48] | 62
56 | RVFQR [5mer-45] | 86
57 | KWVRR [5mer-216] | 56
58 | KLLLK [5mer-514] | 52
59 | KRVRR [5mer-200] | 55
60 | KWLLR [5mer-222] | 86
61 | KQFQR [5mer-344] | 52
62 | KLICR [5mer-208] | 80
63 | KGLQK [5mer-508] | 67
64 | RVQCK [5mer-1] | 54
65 | KSLQK [5mer-500] | 63
66 | KGVRR [5mer-47] | 70
67 | RQYTK [5mer-213] | 83
68 | KQFSR [5mer-526] | 54
69 | KGLTR [5mer-229] | 84
70 | RVQRK [5mer-509] | 61
71 | KLQLR [5mer-206] | 57
72 | RRYTR [5mer-226] | 60
73 | KQVRK [5mer-223] | 61
74 | KWYTR [5mer-232] | 71
75 | KWVQK [5mer-507] | 84
76 | RGRTR [5mer-221] | 58
77 | KWIRK [5mer-301] | 64
78 | RGRLR [5mer-506] | 51
79 | RQFQR [5mer-204] | 84
